Reference: article PMC7608914, “Bridging of nucleosome-proximal DNA double-strand breaks by PARP2 enhances its interaction with HPF1” (PLoS ONE, 2019)

Columns and labels:
[1] = biological target: T1, Alexa488-labeled PARP2-WT (human, UniProt Q9UGN5-2 1-570, Alexa Fluor 488 C5 maleimide (extent of labeling typically between 20 and 80%); labelled residue not stated); test: FRET or BRET; Alexa647-labeled HPF1 (acceptor) titrated from 18.5 μM to 0 μM into 1 μM Alexa488-labeled PARP2 (donor) alone or into the preformed PARP2–Nuc165 complex (1 μM / 100 nM); 50 mM Tris-HCl pH 8, 50 mM NaCl, 1 mM MgCl2, 0.1 mM EDTA, 0.1 mM TCEP, 0.01% NP-40; Hill model; conditions: both partners purified
T1 construct: human Poly(ADP-ribose) Polymerase 2, isoform 2 cDNA in pET28b; the mutant made from this vector is called full-length; source: E. coli Rosetta2 (DE3) pLysS, purified (HisTrap, heparin, Superdex 200), then labelled

[2] = biological target: T2, Alexa488-labeled PARP2-QFRD (human, UniProt Q9UGN5-2 1-570, Q112R | F113D, Alexa Fluor 488 C5 maleimide (extent of labeling typically between 20 and 80%); labelled residue not stated); test: as above; conditions: both partners purified
T2 construct: human Poly(ADP-ribose) Polymerase 2, isoform 2 cDNA in pET28b, Q112R/F113D double point mutant; source: E. coli Rosetta2 (DE3) pLysS, purified (HisTrap, heparin, Superdex 200), then labelled

B1: Alexa647-labeled HPF1 (natural protein, human, UniProt Q9NWY4 1-346, looked up)
chain: MVGGGGKRRPGGEGPQCEKTTDVKKSKFCEADVSSDLRKEVENHYKLSLPEDFYHFWKFCEELDPEKPSDSLSASLGLQLVGPYDILAGKHKTKKKSTGLNFNLHWRFYYDPPEFQTIIIGDNKTQYHMGYFRDSPDEFPVYVGINEAKKNCIIVPNGDNVFAAVKLFLTKKLREITDKKKINLLKNIDEKLTEAARELGYSLEQRTVKMKQRDKKVVTKTFHGAGLVVPVDKNDVGYRELPETDADLKRICKTIVEAASDEERLKAFAPIQEMMTFVQFANDECDYGMGLELGMDLFCYGSHYFHKVAGQLLPLAYNLLKRNLFAEIIEEHLANRSQENIDQLAA
modifications: Alexa Fluor 647 C2 maleimide (extent of labeling typically between 20 and 80%); labelled residue not stated
notes: human HPF1; cDNA amplified by PCR and cloned between the Nde1 and Xho1 sites of pET28a; also called HPF1_Alexa647; HPF1_A647; source: E. coli Rosetta2 (DE3) pLysS, purified (HisTrap, Superdex 75), then labelled
Question: B1 was tested. Which Kd [1] did it give?
Answer: Its Kd is > 3 µM.

Question: And the Kd [2]?
Answer: Its Kd is > 10 µM.
